Test results as given in article PMC7307649 (Biochemistry, 2020).

T1: ACKR4 C-terminally fused to SmBiT (UniProt Q9NPB9)
T1 sequence: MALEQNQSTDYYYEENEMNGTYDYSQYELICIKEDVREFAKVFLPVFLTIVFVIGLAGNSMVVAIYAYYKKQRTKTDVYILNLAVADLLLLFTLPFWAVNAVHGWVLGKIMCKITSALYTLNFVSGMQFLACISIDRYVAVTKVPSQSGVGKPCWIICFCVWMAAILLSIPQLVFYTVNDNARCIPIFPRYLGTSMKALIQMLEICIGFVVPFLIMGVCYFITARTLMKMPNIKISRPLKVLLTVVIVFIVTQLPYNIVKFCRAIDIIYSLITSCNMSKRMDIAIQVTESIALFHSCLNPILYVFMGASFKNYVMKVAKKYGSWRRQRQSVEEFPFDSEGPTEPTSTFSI

T2: CCL21WT (full-length human CCL21, residues 1–111) (human), O00585
T2 chain: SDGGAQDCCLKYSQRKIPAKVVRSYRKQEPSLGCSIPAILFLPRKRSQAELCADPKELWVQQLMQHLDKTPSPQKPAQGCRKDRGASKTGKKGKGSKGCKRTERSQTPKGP

T3: CCR7 C-terminally fused to SmBiT (human, UniProt P32248 25-378)
T3 sequence (looked up): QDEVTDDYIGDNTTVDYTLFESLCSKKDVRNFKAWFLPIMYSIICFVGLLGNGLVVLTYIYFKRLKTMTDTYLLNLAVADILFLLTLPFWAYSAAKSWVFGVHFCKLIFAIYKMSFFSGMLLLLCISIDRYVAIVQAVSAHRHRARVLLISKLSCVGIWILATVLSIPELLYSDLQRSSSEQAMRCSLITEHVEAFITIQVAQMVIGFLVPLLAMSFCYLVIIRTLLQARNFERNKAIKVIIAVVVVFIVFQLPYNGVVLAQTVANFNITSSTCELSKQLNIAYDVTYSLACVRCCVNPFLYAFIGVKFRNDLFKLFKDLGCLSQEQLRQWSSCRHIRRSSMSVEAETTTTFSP

T4: ACKR4 C-terminally fused to SmBiT (UniProt Q9NPB9 1-350)
T4 sequence (looked up): T1 sequence

B1: CCL21WT (full-length human CCL21, residues 1–111) (ligand, UniProt O00585 24-134, looked up)
chain: T2 chain
B2: CCL21trunc (CCL21 residues 1–79) (domain or fragment, human, UniProt O00585 24-102, looked up)
chain: SDGGAQDCCLKYSQRKIPAKVVRSYRKQEPSLGCSIPAILFLPRKRSQAELCADPKELWVQQLMQHLDKTPSPQKPAQG

How the values were obtained:
[1] = target: CCR7 C-terminally fused to SmBiT (human) (UniProt P32248)
[2] = target: T1, ACKR4 C-terminally fused to SmBiT
[3] = target: CCR7 C-terminally fused to SmBiT (human) (UniProt P32248); remark: listed apart in the source
[4] = target: CCR7 C-terminally fused to SmBiT (human) (UniProt P32248); remark: listed apart in the source
[5] = target: T2, CCL21WT (full-length human CCL21, …); assay: NMR titration; conditions: remark: other sources report otherwise
[6] = target: T2, CCL21WT (full-length human CCL21, …); assay: NMR titration; conditions: remark: other sources report otherwise
[7] = target: T3, CCR7 C-terminally fused to SmBiT; assay: cell-based or functional assay
[8] = target: T4, ACKR4 C-terminally fused to SmBiT; assay: cell-based or functional assay

| Molecule | calcium flux in CHEM-1 CCR7+ cells, EC50 [1] [µM] | β-arrestin 1 recruitment to ACKR4, EC50 [2] [µM] | β-arrestin 1 recruitment to CCR7, EC50 [3] [µM] | calcium mobilization in CHEM-1 CCR7+ cells, EC50 [7] [µM] | β-arrestin 1 recruitment to CCR7 (panel with the truncation variants), EC50 [7] [µM] | β-arrestin 1 recruitment to ACKR4 (panel with the truncation variants), EC50 [8] [µM] | also measured |
| --- | --- | --- | --- | --- | --- | --- | --- |
| CCL21 1–91 C80A (from UniProt O00585 24-114) (domain or fragment) | 0.0073 | 0.005 | 0.06 | – | – | – | cAMP inhibition assay, dose–response from 10 pM to 100 nM, EC50 [3]: 7 nM |
| CCL21 1–101 (from UniProt O00585 24-124) (domain or fragment) | 0.0215 | 0.03 | 0.1 | – | – | – | – |
| CCL21 C80AC99A (from UniProt O00585 24-134) (ligand) | – | – | – | – | – | – | calcium mobilization in CHEM-1 CCR7+ cells, EC50 [4]: 0.0253 µM |
| B1 | – | – | – | 0.0334 | ~0.1 | ~0.03 | Kd [5]: 2000 to 10000 µM; Kd [6]: > 1000 µM |
| B2 | – | – | – | 0.00585 | ~0.06 | ~0.005 | – |
